This note sets out measurements from paper PMC9324987, “Comparative Analysis of Catabolic and Anabolic Dehydroshikimate Dehydratases for 3,4-DHBA Production in Escherichia coli” (Microorganisms, 2022).

Data set [1] has as its target T1, QsuB (Corynebacterium glutamicum, UniProt Q8NT86).
T1 construct: gene Cgl0422
T1 sequence (Q8NT86 1-618): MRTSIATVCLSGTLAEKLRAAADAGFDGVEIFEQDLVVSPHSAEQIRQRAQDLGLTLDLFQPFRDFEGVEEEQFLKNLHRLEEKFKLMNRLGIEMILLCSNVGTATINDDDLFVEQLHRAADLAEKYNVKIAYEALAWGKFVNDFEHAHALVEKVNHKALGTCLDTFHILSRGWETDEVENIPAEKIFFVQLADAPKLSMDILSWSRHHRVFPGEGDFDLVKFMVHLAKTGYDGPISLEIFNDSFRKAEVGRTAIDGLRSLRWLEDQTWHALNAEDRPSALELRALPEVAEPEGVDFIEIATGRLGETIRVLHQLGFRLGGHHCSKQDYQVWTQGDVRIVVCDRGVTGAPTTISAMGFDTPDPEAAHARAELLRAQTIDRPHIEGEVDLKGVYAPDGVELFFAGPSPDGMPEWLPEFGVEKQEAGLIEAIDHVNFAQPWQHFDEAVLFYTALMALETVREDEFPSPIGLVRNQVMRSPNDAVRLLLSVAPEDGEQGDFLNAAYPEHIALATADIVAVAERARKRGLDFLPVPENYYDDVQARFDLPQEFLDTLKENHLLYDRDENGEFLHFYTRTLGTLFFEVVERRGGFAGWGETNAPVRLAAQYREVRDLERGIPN
The experiment in a line: […],4-DHBA formation at […] nm, product inhibition. The data set is classed as biochemical.

The target of data set [2] is T2, Qa-4 (Neurospora crassa, UniProt P07046).
T2 construct: full length, C-terminal His6 (pET22b), codon-optimised synthetic gene, made in E. coli BL21(DE3); primer-encoded N-terminus MPSKLAISS
T2 sequence (P07046 1-359): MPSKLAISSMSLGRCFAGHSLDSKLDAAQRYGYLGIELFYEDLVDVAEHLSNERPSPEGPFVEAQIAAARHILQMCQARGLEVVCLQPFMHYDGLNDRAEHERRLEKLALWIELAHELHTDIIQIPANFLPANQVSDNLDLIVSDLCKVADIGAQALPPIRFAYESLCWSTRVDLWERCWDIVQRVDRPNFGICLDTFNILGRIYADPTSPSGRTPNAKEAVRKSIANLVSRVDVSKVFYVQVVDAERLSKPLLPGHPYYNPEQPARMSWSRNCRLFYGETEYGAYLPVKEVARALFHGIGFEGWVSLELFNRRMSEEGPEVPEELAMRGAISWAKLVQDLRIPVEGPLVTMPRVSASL
Nature of the data set: […],4-DHBA formation at […] nm, product inhibition. The data set is classed as biochemical.

Data set [3] addresses T3, AsbF (Bacillus thuringiensis, UniProt A0A1B1L4G3).
T3 construct: gene CAB88_09740
Nature of the data set: […],4-DHBA formation at […] nm, product inhibition. It is filed as biochemical. Particulars: 1 mM DHS, 10 mM Mg2+, 0.1 M Tris/HCl pH 7.5, 20 °C, 150 nM enzyme.

Substrate in data set [4]: O=C(O)C1=CC(=O)[C@@H](O)[C@H](O)C1
The experiment in a line: purified protein. The following applies: 10 mM Mg2+, 0.1 M Tris/HCl pH 7.5, 20 °C, 0.1-5 mM DHS. It is filed as biochemical, Neurospora crassa.

Substrate in data set [5]: O=C(O)C1=CC(=O)[C@@H](O)[C@H](O)C1
The experiment in a line: purified protein. It is filed as biochemical, Corynebacterium glutamicum. Particulars: 10 mM metal salt (preferred metal, Co2+), 0.1 M Tris/HCl pH 7.5, 20 °C, 0.1-5 mM DHS.

T3 sequence (A0A1B1L4G3 1-280): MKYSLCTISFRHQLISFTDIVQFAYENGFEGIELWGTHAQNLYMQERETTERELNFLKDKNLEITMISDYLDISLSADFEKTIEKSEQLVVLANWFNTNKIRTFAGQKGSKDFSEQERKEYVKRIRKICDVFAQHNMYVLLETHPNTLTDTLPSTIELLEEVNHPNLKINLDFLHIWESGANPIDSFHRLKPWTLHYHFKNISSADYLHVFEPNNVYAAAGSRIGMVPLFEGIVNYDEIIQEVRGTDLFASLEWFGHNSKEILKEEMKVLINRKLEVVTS

A word on the IC50: it is the point on the concentration scale where inhibition reaches its midpoint. High values mean lower potency, low ones higher potency. For the molecule `O=C(O)c1ccc(O)c(O)c1` [3,4-DHBA], the IC50 in data set [1] is roughly 350 µM; in data set [2] it was roughly 640 µM; in data set [3], roughly 80 µM.

B1: Qa-4 (Neurospora crassa OR74A) (protein)
chain: MPSKLAISSMSLGRCFAGHSLDSKLDAAQRYGYLGIELFYEDLVDVAEHLSNERPSPEGPFVEAQIAAARHILQMCQARGLEVVCLQPFMHYDGLNDRAEHERRLEKLALWIELAHELHTDIIQIPANFLPANQVSDNLDLIVSDLCKVADIGAQALPPIRFAYESLCWSTRVDLWERCWDIVQRVDRPNFGICLDTFNILGRIYADPTSPSGRTPNAKEAVRKSIANLVSRVDVSKVFYVQVVDAERLSKPLLPGHPYYNPEQPARMSWSRNCRLFYGETEYGAYLPVKEVARALFHGIGFEGWVSLELFNRRMSEEGPEVPEELAMRGAISWAKLVQDLRIPVEGPLVTMPRVSASL
notes: full length, C-terminal His6 (pET22b), codon-optimised synthetic gene, made in E. coli BL21(DE3); primer-encoded N-terminus MPSKLAISS
The term Km denotes the concentration of substrate that gives half-maximal velocity. A word on the kcat: it is the maximal rate divided by the concentration of active sites. By kcat/Km is commonly meant the turnover number divided by the Michaelis constant. On to B1, for which, in data set [4], the Km came out at 598 ± 16 µM, the kcat is 218.6 ± 1.1 s⁻¹ and the kcat/Km is 366000 ± 68800 M⁻¹ s⁻¹.

B2: QsuB (Corynebacterium glutamicum ATCC 13032) (protein)
chain: MRTSIATVCLSGTLAEKLRAAADAGFDGVEIFEQDLVVSPHSAEQIRQRAQDLGLTLDLFQPFRDFEGVEEEQFLKNLHRLEEKFKLMNRLGIEMILLCSNVGTATINDDDLFVEQLHRAADLAEKYNVKIAYEALAWGKFVNDFEHAHALVEKVNHKALGTCLDTFHILSRGWETDEVENIPAEKIFFVQLADAPKLSMDILSWSRHHRVFPGEGDFDLVKFMVHLAKTGYDGPISLEIFNDSFRKAEVGRTAIDGLRSLRWLEDQTWHALNAEDRPSALELRALPEVAEPEGVDFIEIATGRLGETIRVLHQLGFRLGGHHCSKQDYQVWTQGDVRIVVCDRGVTGAPTTISAMGFDTPDPEAAHARAELLRAQTIDRPHIEGEVDLKGVYAPDGVELFFAGPSPDGMPEWLPEFGVEKQEAGLIEAIDHVNFAQPWQHFDEAVLFYTALMALETVREDEFPSPIGLVRNQVMRSPNDAVRLLLSVAPEDGEQGDFLNAAYPEHIALATADIVAVAERARKRGLDFLPVPENYYDDVQARFDLPQEFLDTLKENHLLYDRDENGEFLHFYTRTLGTLFFEVVERRGGFAGWGETNAPVRLAAQYREVRDLERGIPN
With B2, in data set [5], the Km is reported as 961 ± 77 µM, the kcat was found to be 60.8 ± 0.9 s⁻¹ and the kcat/Km came out at 63300 ± 11700 M⁻¹ s⁻¹.
